From publication PMC7052193, “Nanobody-enabled monitoring of kappa opioid receptor states” (Nature Communications, 2020)
“And” between values parts separate entries of the source, which are not always exact repeats. Equal values may be shown once.

Tests used:
5-HT2AR = molecular target: T1, 5-HT2AR (Homo sapiens, UniProt P28223); assay type: cell-based; details: wild-type 5-HT2AR
T1 construct: expressed in transfected cells; host or cells: HEK 293T

GPR149 = assay type: cell-based; details: GPR149-KOR and Nb6
[1] = molecular target: T2, human KOR containing C-terminal Renilla luciferase (RLuc8) (human, UniProt P41145); assay: FRET or BRET; kinetic BRET in HEK 293T cells co-expressing KOR-Rluc and Nb6-mVenus or Nb39-mVenus; 10 µM Sal A, then 10 µM JDTic added at the indicated times; t1/2 from one phase exponential decay; details: partners not purified
T2 construct: kappa opioid receptor, human, wild type; also called KOR-Rluc; kappa opioid receptor; source: HEK 293T, co-transfected, in live cells; not shown: RLuc8, C-terminal, kept
T2 sequence (P41145 whole entry): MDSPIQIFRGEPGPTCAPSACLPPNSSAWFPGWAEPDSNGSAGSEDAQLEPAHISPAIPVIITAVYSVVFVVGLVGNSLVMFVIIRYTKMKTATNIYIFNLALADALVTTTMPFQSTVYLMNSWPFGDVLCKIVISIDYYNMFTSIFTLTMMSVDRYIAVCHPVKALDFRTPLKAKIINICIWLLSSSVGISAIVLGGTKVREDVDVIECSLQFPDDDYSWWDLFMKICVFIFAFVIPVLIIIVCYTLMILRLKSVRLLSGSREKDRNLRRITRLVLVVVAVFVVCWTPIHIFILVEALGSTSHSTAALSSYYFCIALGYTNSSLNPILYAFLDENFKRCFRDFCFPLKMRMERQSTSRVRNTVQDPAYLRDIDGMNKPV

human KOR [2] = molecular target: T3, human KOR (Homo sapiens, UniProt P41145, R271A); assay: BRET assay, KOR-Rluc and Nb6-mVenus: Nb6 binding / agonist-induced dissociation; assay type: cell-based
T3 construct: expressed in transfected cells; host or cells: HEK 293T
T3 sequence (P41145 whole entry R271A): as the sequence (P41145 whole entry) above, with R271A counted along it

human KOR [3] = molecular target: T4, human KOR (Homo sapiens, UniProt P41145, R257A); assay: as above; assay type: cell-based
T4 construct: expressed in transfected cells; host or cells: HEK 293T
T4 sequence (P41145 whole entry R257A): as the sequence (P41145 whole entry) above, with R257A counted along it

human KOR [4] = molecular target: T5, human KOR (Homo sapiens, UniProt P41145, D266L); assay: as above; assay type: cell-based
T5 construct: expressed in transfected cells; host or cells: HEK 293T
T5 sequence (P41145 whole entry D266L): as the sequence (P41145 whole entry) above, with D266L counted along it

human KOR [5] = molecular target: T6, human KOR (Homo sapiens, UniProt P41145, R270M); assay: as above; assay type: cell-based
T6 construct: expressed in transfected cells; host or cells: HEK 293T
T6 sequence (P41145 whole entry R270M): as the sequence (P41145 whole entry) above, with R270M counted along it

human KOR [6] = molecular target: human KOR (Homo sapiens, UniProt P41145, R270A); assay: as above; assay type: cell-based
human KOR [7] = molecular target: human KOR (Homo sapiens, UniProt P41145, L253A); assay: as above; assay type: cell-based
human KOR [8] = molecular target: human KOR (Homo sapiens, UniProt P41145, R274A); assay: as above; assay type: cell-based
human KOR [9] = molecular target: human KOR (Homo sapiens, UniProt P41145, D266A); assay: as above; assay type: cell-based
KOR = KOR (Homo sapiens, UniProt P41145); assay: as above; assay type: cell-based
KOR, sequence (P41145 whole entry): as the sequence (P41145 whole entry) above

human KOR [10] = molecular target: T7, human KOR (Homo sapiens, UniProt P41145, R263A); assay: as above; assay type: cell-based
T7 construct: expressed in transfected cells; host or cells: HEK 293T
T7 sequence (P41145 whole entry R263A): as the sequence (P41145 whole entry) above, with R263A counted along it

GPR151 [11] = assay type: cell-based; details: GPR151-KOR and Nb6
GPR151 [12] = molecular target: T8, GPR151 (Homo sapiens, UniProt Q8TDV0); assay type: cell-based; details: GPR151 and Nb6
T8 construct: expressed in transfected cells; host or cells: HEK 293T
T8 sequence (Q8TDV0 1-419): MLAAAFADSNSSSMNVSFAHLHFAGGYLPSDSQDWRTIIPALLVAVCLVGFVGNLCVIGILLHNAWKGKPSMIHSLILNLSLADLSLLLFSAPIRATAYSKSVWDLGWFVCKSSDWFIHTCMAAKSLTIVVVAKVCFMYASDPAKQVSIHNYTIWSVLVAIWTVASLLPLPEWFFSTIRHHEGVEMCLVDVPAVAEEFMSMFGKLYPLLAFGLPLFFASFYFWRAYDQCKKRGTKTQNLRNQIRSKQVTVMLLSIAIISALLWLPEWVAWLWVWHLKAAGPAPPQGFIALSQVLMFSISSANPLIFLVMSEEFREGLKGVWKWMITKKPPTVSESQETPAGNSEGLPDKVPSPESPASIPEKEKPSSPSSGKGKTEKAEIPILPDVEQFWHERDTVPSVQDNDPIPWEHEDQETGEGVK

ETA = molecular target: T9, ETA (Homo sapiens, UniProt P25101); assay type: cell-based; details: wild-type ETA
T9 construct: expressed in transfected cells; host or cells: HEK 293T
T9 sequence (P25101 21-427): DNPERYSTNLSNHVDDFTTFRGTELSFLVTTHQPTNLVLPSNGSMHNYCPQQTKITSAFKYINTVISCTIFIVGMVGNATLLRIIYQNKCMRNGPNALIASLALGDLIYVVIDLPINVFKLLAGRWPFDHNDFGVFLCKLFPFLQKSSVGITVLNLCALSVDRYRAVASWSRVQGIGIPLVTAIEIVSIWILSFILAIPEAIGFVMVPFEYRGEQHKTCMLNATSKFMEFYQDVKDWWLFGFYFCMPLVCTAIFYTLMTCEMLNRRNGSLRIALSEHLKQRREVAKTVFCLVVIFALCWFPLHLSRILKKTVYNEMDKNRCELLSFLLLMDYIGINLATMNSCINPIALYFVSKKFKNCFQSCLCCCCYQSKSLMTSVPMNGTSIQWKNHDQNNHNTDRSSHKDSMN

GPR111 = assay: BRET assay GPR111 / GPR111-KOR and Nb6, basal state; assay type: cell-based

T1 sequence (P28223 whole entry): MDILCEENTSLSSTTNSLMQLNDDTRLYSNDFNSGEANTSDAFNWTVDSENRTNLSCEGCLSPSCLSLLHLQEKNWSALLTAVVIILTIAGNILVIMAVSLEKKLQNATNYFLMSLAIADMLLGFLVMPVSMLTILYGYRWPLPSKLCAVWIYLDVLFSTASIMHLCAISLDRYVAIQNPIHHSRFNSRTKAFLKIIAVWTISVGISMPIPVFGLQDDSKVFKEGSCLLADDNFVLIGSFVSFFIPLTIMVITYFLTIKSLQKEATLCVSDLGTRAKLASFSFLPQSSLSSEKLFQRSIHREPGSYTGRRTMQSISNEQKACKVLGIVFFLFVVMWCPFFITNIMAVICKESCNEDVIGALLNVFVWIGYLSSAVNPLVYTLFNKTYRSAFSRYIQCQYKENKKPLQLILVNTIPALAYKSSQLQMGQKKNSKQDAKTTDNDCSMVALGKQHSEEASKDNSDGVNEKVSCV

B1: Nb6-mVenus (VHH)
VHH: QVQLQESGGGLVQAGESLRLSCAASGTIFRLYDMGWYRRVSGNQRELVASITSGGSTKYGDSVKGRFTISRDNAKNTVYLQMSSLKPEDTAVYYCNAEYRTGIWEELLDGWGQGTQVTVSS
notes: as the chain of m2, nanobody chain of PDB 6VI4; source: HEK 293T, co-transfected, in live cells; not shown: mVenus, C-terminal, kept
interaction with Nb6 in the BRET assay (5-HT2AR): did not display measurable interaction
BRET receptor and Nb6 in basal state, source data Figure 5e (GPR149): 100.397 and 94.0625 and 97.7156 and 109.725
t1/2 of the decrease in Nb6-KOR BRET after the agonist Sal A [1]: 0.833 ± 0.167 min
t1/2 of the increase of the BRET ratio after JDTic (following Sal A) [1]: 1.25 ± 0.2 min
Net BRET, KOR mutations with Nb6, source data Figure 3b (human KOR [2]): 1.2246 and 1.2 and 1.237 and 1.199 and 1.227 and 1.2457
Net BRET, KOR mutations with Nb6, source data Figure 3b (human KOR [3]): 1.007 and 0.9978 and 1.013 and 1.028 and 1.043 and 1.085
Net BRET, KOR mutations with Nb6, source data Figure 3b (human KOR [4]): 0.05761 and 0.05183 and 0.0517 and 0.0557 and 0.08302 and 0.08918
Net BRET, KOR mutations with Nb6, source data Figure 3b (human KOR [5]): 0.05686 and 0.05346 and 0.04737 and 0.04878 and 0.05049 and 0.05323
Net BRET, KOR mutations with Nb6, source data Figure 3b (human KOR [6]): 0.07102 and 0.06841 and 0.07532 and 0.07378 and 0.08027 and 0.09204
Net BRET, KOR mutations with Nb6, source data Figure 3b (human KOR [7]): 1.189 and 1.193 and 1.2037 and 1.27 and 1.206 and 1.301
Net BRET, KOR mutations with Nb6, source data Figure 3b (human KOR [8]): 1.098 and 1.114 and 1.1115 and 1.116 and 1.123 and 1.128
Net BRET, KOR mutations with Nb6, source data Figure 3b (human KOR [9]): 0.1429 and 0.1064 and 0.08886 and 0.09293
Net BRET, KOR mutations with Nb6, source data Figure 3b (KOR): 1.21 and 1.208 and 1.235 and 1.249 and 1.256 and 1.272
Net BRET, KOR mutations with Nb6, source data Figure 3b (human KOR [10]): 0.9862 and 0.9845 and 1.038 and 1.045 and 1.021 and 1.043
BRET receptor and Nb6 in basal state, source data Figure 5e (GPR151 [11]): 96.9506 and 102.894 and 103.581 and 99.837
BRET receptor and Nb6 in basal state, source data Figure 5e (GPR151 [12]): 4.933 and 5.929 and 5.0734 and 5.659
interaction with Nb6 in the BRET assay (ETA): did not display measurable interaction
BRET receptor and Nb6 in basal state, source data Figure 5e (GPR111): 96.3553 and 106.675 and 85.5388 and 88.3471
